Assay results: patent US20110318348A1 (NATIONAL RESEARCH COUNCIL OF CANADA, published 2011)

Assays:
bovine serum albumin [1] = target: T1, bovine serum albumin (bovine, UniProt P02769 25-607); assay: SPR (Biacore 3000), BSA immobilized on CM5, extended dissociation
T1 construct: also called BSA

bovine serum albumin [2] = target: T1, bovine serum albumin; assay: SPR (Biacore 3000), BSA immobilized on CM5, 1:1 model; SE 3.2 × 10^3 in r12c3
bovine serum albumin [3] = target: T1, bovine serum albumin; assay: SPR (Biacore 3000), BSA immobilized on CM5, calculated from ka and kd
bovine serum albumin [4] = target: T1, bovine serum albumin; assay: SPR (Biacore 3000), BSA immobilized on CM5
bovine serum albumin [5] = target: T1, bovine serum albumin; assay: SPR (Biacore 3000), BSA immobilized on CM5, 4 h dissociation time; SE 3 × 10^-8 in r12c4
bovine serum albumin [6] = target: T1, bovine serum albumin; assay: SPR (Biacore 3000), BSA immobilized on CM5; profiles did not fit a 1:1 model
Description: (§1) 1700 RUs of BSA (Sigma) were immobilized on research grade CM5-sensorchip (BIACORE). Ethanolamine blocked surface was used as a reference. Immobilizations were carried out at the protein concentrations of 50 μg/ml in 10 mM acetate pH4.5 using amine coupling kit supplied by the manufacturer. Antibodies were passed through Superdex 75 (GE Healthcare) column to separate monomer prior to BIACORE analysis.
(§2) In all instances, analyses were carried out at 25° C. in HBS-E buffer (10 mM HEPES, 150 mM NaCl and 3 mM EDTA, pH7.4) supplemented with 0.005% surfactant P20 at a flow rate of 20 ul/min. The surfaces were regenerated with 100 mM HCl (3 seconds). Data were analyzed with BIAevaluation 4.1 software.

bovine serum albumin [7] = target: T1, bovine serum albumin; assay: SPR (Biacore 3000), BSA immobilized on CM5; estimated, no 1:1 fit
Description: as §1, §2

bovine serum albumin [8] = target: T1, bovine serum albumin; assay: SPR (Biacore 3000), BSA immobilized on CM5, 1:1 model; SE 2.2 × 10^4 in r14c3
Description: as §1, §2

bovine serum albumin [9] = target: T1, bovine serum albumin; assay: SPR (Biacore 3000), BSA immobilized on CM5, 1:1 model; SE 5.4 × 10^-3 in r14c4
Description: as §1, §2

bovine serum albumin [10] = target: T1, bovine serum albumin; assay: SPR (Biacore 3000), BSA immobilized on CM5, 1:1 model; SE 1.1 × 10^-8 in r14c5
Description: as §1, §2

T1 sequence (P02769 25-607 limits assumed): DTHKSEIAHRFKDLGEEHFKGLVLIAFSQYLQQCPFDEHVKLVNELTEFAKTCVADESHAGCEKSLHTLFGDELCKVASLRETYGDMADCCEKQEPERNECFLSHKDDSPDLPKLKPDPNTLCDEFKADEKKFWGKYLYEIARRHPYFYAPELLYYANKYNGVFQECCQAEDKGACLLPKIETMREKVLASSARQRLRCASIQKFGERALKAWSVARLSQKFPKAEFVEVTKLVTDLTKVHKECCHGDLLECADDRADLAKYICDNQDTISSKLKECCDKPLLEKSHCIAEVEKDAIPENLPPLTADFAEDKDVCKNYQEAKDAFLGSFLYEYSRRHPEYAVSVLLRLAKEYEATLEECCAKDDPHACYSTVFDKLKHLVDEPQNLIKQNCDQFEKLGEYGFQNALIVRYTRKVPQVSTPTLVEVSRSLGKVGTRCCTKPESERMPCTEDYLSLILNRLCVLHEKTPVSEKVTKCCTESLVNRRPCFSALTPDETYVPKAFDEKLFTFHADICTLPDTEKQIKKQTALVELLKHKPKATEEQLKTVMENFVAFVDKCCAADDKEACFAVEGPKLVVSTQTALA

B1: sdAb BSA12 (VHH, part only)
VHH: QVKLEESGGGLVQVGDSLRLSCAASGRTFSNYTMAWFRQFPGKEREFVAVVSRGGGATDYADSVKGRFTISRDNAKNTMYLQMNSLKTDTAVYYCAAGTDLSYYYSTKKWAYWGQGTQVTVSS
modifications: c-Myc and 6xHis tags
Bovine serum albumin [1]
  koff: 1e-05 s⁻¹
Bovine serum albumin [2]
  kon: 2.5e+06 M⁻¹ s⁻¹
Bovine serum albumin [3]
  Kd: 0.004 nM
Bovine serum albumin [4]
  binding capacity (RU): 150 RU
Bovine serum albumin [5]
  koff: 9e-06 s⁻¹

B2: sdAb BSA8 (VHH)
VHH: QVKLEESGGGLAQAGGSLRLSCAASERTFIRYTIGWFRQAPGKEREFVGRVNWSGGDTYYADSVKGRFTISRDNAKTTVTLQMSSLKPEDTAVYSCAASPKWSEIPREYIYWGPGTQVTVSS
Bovine serum albumin [6]
  koff: 0.005 s⁻¹
Bovine serum albumin [7]
  Kd: ~100 nM

B3: sdAb BSA16 (VHH)
VHH: QVKLEESGGGLVQAGGSLRLSCAPSGRTFRTWRMGWFRQAPGKEREFVAAINLNTGNTYYVDSVKGRFTISGDYAKNTLYLQMNSLKPEDTAVYFCAARSPDSDYVPLSSIDYQYWGQGTQVTVSS
Bovine serum albumin [8]
  kon: 1e+06 M⁻¹ s⁻¹
Bovine serum albumin [9]
  koff: 0.27 s⁻¹
Bovine serum albumin [10]
  Kd: 280 nM
